Measured values taken from patent US5688918, “p53as protein and antibody therefor” (Health Research, Inc.).

Assays:
p53 [1] = target: T1, p53 (UniProt P02340 P02340:1-390); assay: cell_activity
p53as (Mus musculus) = p53as (Mus musculus) (UniProt P02340); assay: cell_activity
p53 [2] = target: T1, p53; assay: cell_activity; CAT reporter, mouse (10)1 cells; settings: tags: none; pCMVp53r; chain copies: 4
Method: Spontaneously arising immortalized murine BALB/c embryo fibroblast (10) 1 is a p53 negative cell line which was transfected with 2 μg pSV-β-gal plasmid (Promegal), 3 μg 50-2 plasmid (Dr. Levine) which contains 2 copies of a 50 bp sequence corresponding to p53 binding site in muscle creatinine kinase promoter-enhancer upstream of a basic CAT reporter plasmid, and 5 μg pCMVp53as, pCMVp53r or pCMV vector control. Transfection was done using the calcium phosphate method. The cells were harvested 48 hors post transfection and lysed by three freeze-thaw cycles. The supernatant was assayed for CAT activity using diffusion.

[3] = CAT reporter, human Saos-2 cells
[4] = luciferase reporter, mouse (10)1 cells

T1 sequence (P02340 whole entry, one chain of several): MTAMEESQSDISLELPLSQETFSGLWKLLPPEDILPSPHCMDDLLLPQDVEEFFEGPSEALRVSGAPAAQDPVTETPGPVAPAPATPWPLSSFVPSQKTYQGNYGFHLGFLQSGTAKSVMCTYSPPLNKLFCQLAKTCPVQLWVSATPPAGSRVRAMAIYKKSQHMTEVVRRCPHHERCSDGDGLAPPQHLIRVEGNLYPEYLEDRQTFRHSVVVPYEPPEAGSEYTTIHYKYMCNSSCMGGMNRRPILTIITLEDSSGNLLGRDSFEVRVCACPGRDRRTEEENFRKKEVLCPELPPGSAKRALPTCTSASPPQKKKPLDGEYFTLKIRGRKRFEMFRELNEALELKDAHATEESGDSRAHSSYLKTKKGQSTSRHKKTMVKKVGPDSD
Sequence of p53as (Mus musculus) (P02340 1-364): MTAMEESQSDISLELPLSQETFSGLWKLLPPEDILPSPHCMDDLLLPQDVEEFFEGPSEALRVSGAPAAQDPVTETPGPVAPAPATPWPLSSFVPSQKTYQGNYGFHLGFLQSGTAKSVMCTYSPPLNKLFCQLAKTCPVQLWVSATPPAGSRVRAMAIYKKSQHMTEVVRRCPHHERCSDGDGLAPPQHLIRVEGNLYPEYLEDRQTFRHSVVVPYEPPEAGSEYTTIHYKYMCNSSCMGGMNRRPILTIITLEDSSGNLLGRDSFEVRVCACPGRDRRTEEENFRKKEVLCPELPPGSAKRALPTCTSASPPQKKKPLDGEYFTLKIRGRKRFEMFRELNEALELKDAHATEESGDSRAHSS

PG13 (13 repeats of p53 binding site)
activity (fold activation) (p53 [1]; [3]): 14
activity (fold activation) (p53as (Mus musculus); [3]): 9

WAF-1 promoter (WWP-1 luciferase)
activity (fold activation) (p53 [1]; [4]): 15
activity (fold activation) (p53as (Mus musculus); [4]): 14

B1: muscle creatine kinase promoter-enhancer p53 site (50-2 reporter, 2 copies of 50 bp) (dsDNA)
DNA 1: TGGCAAGCCTATGACATGGCCGGGGCCTGCCTCTCTCTGCCTCTGACCCT
DNA 2: AGGGTCAGAGGCAGAGAGAGGCAGGCCCCGGCCATGTCATAGGCTTGCCA
activity (p53 [2]): 27 fold activation
